Source: article PMC7476758, “Underground isoleucine biosynthesis pathways in E. coli” (eLife, 2020)

Experiments:
[1] = test system: CC(=O)SCCNC(=O)CCNC(=O)[C@H](O)C(C)(C)COP(=O)(O)OP(=O)(O)OC[C@H]1O[C@@H](n2cnc3c(N)ncnc32)[C@H](O)[C@@H]1OP(=O)(O)O; test: Michaelis-Menten kinetics of purified mutant enzyme, DTNB assay of released CoA (KM); format: biochemical, Escherichia coli; conditions: mutation far from the active site
N[C@@H](CO)C(=O)O = test: Michaelis-Menten kinetics of purified mutant enzyme, DTNB assay (KM); format: biochemical, Escherichia coli; conditions: mutation far from the active site

serine acetyltransferase (CysE) (Escherichia coli K-12; A33T)
Km [1]: 5000 ± 2000 µM | Km (N[C@@H](CO)C(=O)O): 500 ± 200 µM
